Here are results for four molecules from US20060039927A1 (US Dept. of Health and Human Services, published 2006).

To fix the notation:
B1: MBPvIL-6 (fusion of maltose binding protein, a factor Xa cleavage site and amino acids 22-204 of KSHV vIL-6) (ligand)
chain: GKLPDAPEFEKDLLIQRLNWMLWVIDECFRDLCYRTGICKGILEPAAIFHLKLPAINDTDHCGLIGFNETSCLKKLADGFFEFEVLFKFLTTEFGKSVINVDVMELLTKTLGWDIQEELNKLTKTHYSPPKFDRGLLGRLQGLKYWVRHFASFYVLSAMEKFAGQAVRVLNSIPDVTPDVHDK
modifications: biotinylated in the sgp130 interference ELISA (sites not given)
notes: range 22-204; also called recombinant vIL-6; full length MBPvIL-6; not shown: factor Xa cleavage site and vector linker between MBP and vIL-6
B2: purified recombinant human sIL-6Rα (R&D Systems) (receptor)
chain: LAPRRCPAQEVARGVLTSLPGDSVTLTCPGVEPEDNATVHWVLRKPAAGSHPSRWAGMGRRLLLRSVQLHDSGNYSCYRAGRPAGTVHLLVDVPPEEPQLSCFRKSPLSNVVCEWGPRSTPSLTTKAVLLVRKFQNSPAEDFQEPCQYSQESQKFSCQLAVPEGDSSFYIVSMCVASSVGSKFSKTQTFQGCGILQPDPPANITVTAVARNPRWLSVTWQDPHSWNSSFYRLRFELRYRAERSKTFTTWMVKDLQHHCVIHDAWSGLRHVVQLRAQEEFGQGEWSEWSPEAMGTPWTESRSPPAENEVSTPMQALTTNKDDDNILFRDSANATSLPVQDSSSVPLP
notes: extracellular domain; Bought; also called soluble IL-6Rα
B3: sgp130-Fc (R&D Systems), a fusion protein of sgp130 and human IgG Fc (Fc fusion)
chain: ELLDPCGYISPESPVVQLHSNFTAVCVLKEKCMDYFHVNANYIVWKTNHFTIPKEQYTIINRTASSVTFTDIASLNIQLTCNILTFGQLEQNVYGITIISGLPPEKPKNLSCIVNEGKKMRCEWDGGRETHLETNFTLKSEWATHKFADCKAKRDTPTSCTVDYSTVYFVNIEVWVEAENALGKVTSDHINFDPVYKVKPNPPHNLSVINSEELSSILKLTWTNPSIKSVIILKYNIQYRTKDASTWSQIPPEDTASTRSSFTVQDLKPFTEYVFRIRCMKEDGKGYWSDWSEEASGITYEDRPSKAPSFWYKIDPSHTQGYRTVQLVWKTLPPFEANGKILDYEVTLTRWKSHLQNYTVNATKLTVNLTNDRYLATLTVRNLVGKSDAAVLTIPACDFQATHPVMDLKAFPKDNMLWVEWTTPRESVKKYILEWCVLSDKAPCITDWQQEDGTVHRTYLRGNLAESKCYLITVTPVYADGPGSPESIKAYLKQAPPSKGPTVRTKKVGKNEAVLEWDQLPVDVQNGFIRNYTIFYRTIIGNETAVNVDSSHTEYTLSSLTSDTLYMVRMAAYTDEGGKDGPEFTFTTPKFAQGEIE
notes: extracellular domain; Immobilized on the CM5 chip in the BIAcore work; the results text calls it sgp130; also called immobilized sgp130; not shown: human IgG Fc
B4: purified recombinant human sgp130 (R&D Systems) (receptor)
chain: B3 chain
notes: extracellular domain; Used in the ELISA assays; Bought; also called soluble gp130

Assay [1] has as its target B3. Kind of assay: SPR (BIAcore 2000), sgp130-Fc immobilized on CM5, MBPvIL-6 in flow, 1:1 Langmuir binding model. A general note: Surface plasmon resonance follows binding to a sensor surface in real time, without labels.
Assay [2] addresses B3. Kind of assay: SPR Kd of this filing against a previously reported Kd (1.7 nM) of the human IL-6/sIL-6Rα complex.
The target of assay [3] is B3. Kind of assay: SPR (BIAcore 2000), equilibrium data, Scatchard analysis, sgp130-Fc immobilized.
Assay [4] deals with T1, maltose binding protein (MBP), control (UniProt P0AEX9 27-392 = MBP). Kind of assay: indirect ELISA, receptor immobilized. (In general: In an ELISA, binding on a coated surface is turned into a signal by an enzyme label.)
Description: Reactions were visualized by using tetramethoxybenzene peroxidase substrate (Kirkegaard & Perry Laboratories, Gaithersburg, Md.), followed by 2N H2SO4. The interference of vIL-6 binding to sgp130 by mAbs was analyzed in a similar manner. […] The mixture was applied to the plates coated with sgp130 (2 μg/ml) after SuperBlock treatment. The protein complex was detected by streptavidin-HRP (1:1000; Kirkegaard & Perry Laboratories), and the peroxidase activity was visualized by tetramethoxybenzene peroxidase substrate, followed by 2N H₂SO₄. Plates were read at 450 nm with λ correction at 630 m using a microplate reader.
Assay [5] addresses T1, maltose binding protein (MBP), control. Kind of assay: surface plasmon resonance (BIAcore 2000), sgp130 immobilized at 1.5 ng/mm2.

Usually Kd stands for the equilibrium constant for the complex coming apart. A word on the koff: it is the first-order rate constant of dissociation. The term kon denotes the second-order rate constant of association.

In assay [1], B1 showed a Kd of 2200 nM, a koff of 0.0022 s⁻¹ and an association rate constant (kon) of 980 M⁻¹ s⁻¹. Moreover, the “fold lower binding affinity than human IL-6/sIL-6Rα complex to gp130” value in assay [2] is 1000 fold. The molecule further returned a dissociation constant Kd in assay [3] of 2500 nM.

On to B2, for which the binding result in assay [4] was “no binding”.

Take B3: the binding result in assay [5] is listed as “no binding”.

On to B4, for which the binding result in assay [4] is recorded as “no binding”.
